Consider 1 protein from US20100009361.

The target of this data set is HA-tagged RAS.

B1: full-length, HA-tagged wild-type SOS1 (protein)
chain: MQAQQLPYEFFSEENAPKWRGLLVPALKKVQGQVHPTLESNDDALQYVEELILQLLNMLCQAQPRSASDVEERVQKSFPHPIDKWAIADAQSAIEKRKRRNPLSLPVEKIHPLLKEVLGYKIDHQVSVYIVAVLEYISADILKLVGNYVRNIRHYEITKQDIKVAMCADKVLMDMFHQDVEDINILSLTDEEPSTSGEQTYYDLVKAFMAEIRQYIRELNLIIKVFREPFVSNSKLFSANDVENIFSRIVDIHELSVKLLGHIEDTVEMTDEGSPHPLVGSCFEDLAEELAFDPYESYARDILRPGFHDRFLSQLSKPGAALYLQSIGEGFKEAVQYVLPRLLLAPVYHCLHYFELLKQLEEKSEDQEDKECLKQAITALLNVQSGMEKICSKSLAKRRLSESACRFYSQQMKGKQLAIKKMNEIQKNIDGWEGKDIGQCCNEFIMEGTLTRVGAKHERHIFLFDGLMICCKSNHGQPRLPGASNAEYRLKEKFFMRKVQINDKDDTNEYKHAFEIILKDENSVIFSAKSAEEKNNWMAALISLQYRSTLERMLDVTMLQEEKEEQMRLPSADVYRFAEPDSEENIIFEENMQPKAGIPIIKAGTVIKLIERLTYHMYADPNFVRTFLTTYRSFCKPQELLSLIIERFEIPEPEPTEADRIAIENGDQPLSAELKRFRKEYIQPVQLRVLNVCRHWVEHHFYDFERDAYLLQRMEEFIGTVRGKAMKKWVESITKIIQRKKIARDNGPGHNITFQSSPPTVEWHISRPGHIETFDLLTLHPIEIARQLTLLESDLYRAVQPSELVGSVWTKEDKEINSPNLLKMIRHTTNLTLWFEKCIVETENLEERVAVVSRIIEILQVFQELNNFNGVLEVVSAMNSSPVYRLDHTFEQIPSRQKKILEEAHELSEDHYKKYLAKLRSINPPCVPFFGIYLTNILKTEEGNPEVLKRHGKELINFSKRRKVAEITGEIQQYQNQPYCLRVESDIKRFFENLNPMGNSMEKEFTDYLFNKSLEIEPRNPKPLPRFPKKYSYPLKSPGVRPSNPRPGTMRHPTPLQQEPRKISYSRIPESETESTASAPNSPRTPLTPPPASGASSTTDVCSVFDSDHSSPFHSSNDTVFIQVTLPHGPRSASVSSISLTKGTDEVPVPPPVPPRRRPESAPAESSPSKIMSKHLDSPPAIPPRQPTSKAYSPRYSISDRTSISDPPESPPLLPPREPVRTPDVFSSSPLHLQPPPLGKKSDHGNAFFPNSPSPFTPPPPQTPSPHGTRRHLPSPPLTQEVDLHSIAGPPVPPRQSTSQHIPKLPPKTYKREHTHPSMHRDGPPLLENAHSS
Regarding B1, the RAS activation result was “When wild type SOS1 was expressed, RAS activation was low in serum-deprived cells, then increased rapidly after EGF stimulation and finally returned toward basal levels by 30 min”.
